According to patent publication US20240270828A1 (UAB RESEARCH FOUNDATION, published 2024):
Read-outs that look alike come from different tables or passages of the source.

Columns and labels:
SARS-CoV-2 Spike protein [1] = molecular target: SARS-CoV-2 Spike protein (SARS-CoV-2, UniProt P0DTC2 16-1211); experiment: SPR, hmAb captured, SARS-CoV-2 Spike injected, 1:1 fit
SARS-CoV-2 Spike protein [2] = molecular target: T1, SARS-CoV-2 Spike protein (SARS-CoV-2, UniProt P0DTC2 16-1211)
[3] = molecular target: T2, SARS-CoV-2 Omicron Spike protein (SARS-CoV-2 Omicron, UniProt P0DTC2 16-1213)
SARS-CoV-2 Spike protein [4] = molecular target: T1, SARS-CoV-2 Spike protein; experiment: SPR/BLI, method not told apart
[5] = molecular target: T2, SARS-CoV-2 Omicron Spike protein; experiment: BLI, mAb on anti-human Fc biosensors
SARS-CoV-2 Spike protein [6] = molecular target: T1, SARS-CoV-2 Spike protein; experiment: BLI, mAb on anti-human Fc biosensor, SARS-CoV-2 Spike in solution
229E Spike protein = molecular target: T3, 229E Spike protein (HCoV-229E, UniProt P15423 16-1115); experiment: ELISA titration of 1249A8 on coated Spike proteins, mean Abs at 450 nm
T3 sequence: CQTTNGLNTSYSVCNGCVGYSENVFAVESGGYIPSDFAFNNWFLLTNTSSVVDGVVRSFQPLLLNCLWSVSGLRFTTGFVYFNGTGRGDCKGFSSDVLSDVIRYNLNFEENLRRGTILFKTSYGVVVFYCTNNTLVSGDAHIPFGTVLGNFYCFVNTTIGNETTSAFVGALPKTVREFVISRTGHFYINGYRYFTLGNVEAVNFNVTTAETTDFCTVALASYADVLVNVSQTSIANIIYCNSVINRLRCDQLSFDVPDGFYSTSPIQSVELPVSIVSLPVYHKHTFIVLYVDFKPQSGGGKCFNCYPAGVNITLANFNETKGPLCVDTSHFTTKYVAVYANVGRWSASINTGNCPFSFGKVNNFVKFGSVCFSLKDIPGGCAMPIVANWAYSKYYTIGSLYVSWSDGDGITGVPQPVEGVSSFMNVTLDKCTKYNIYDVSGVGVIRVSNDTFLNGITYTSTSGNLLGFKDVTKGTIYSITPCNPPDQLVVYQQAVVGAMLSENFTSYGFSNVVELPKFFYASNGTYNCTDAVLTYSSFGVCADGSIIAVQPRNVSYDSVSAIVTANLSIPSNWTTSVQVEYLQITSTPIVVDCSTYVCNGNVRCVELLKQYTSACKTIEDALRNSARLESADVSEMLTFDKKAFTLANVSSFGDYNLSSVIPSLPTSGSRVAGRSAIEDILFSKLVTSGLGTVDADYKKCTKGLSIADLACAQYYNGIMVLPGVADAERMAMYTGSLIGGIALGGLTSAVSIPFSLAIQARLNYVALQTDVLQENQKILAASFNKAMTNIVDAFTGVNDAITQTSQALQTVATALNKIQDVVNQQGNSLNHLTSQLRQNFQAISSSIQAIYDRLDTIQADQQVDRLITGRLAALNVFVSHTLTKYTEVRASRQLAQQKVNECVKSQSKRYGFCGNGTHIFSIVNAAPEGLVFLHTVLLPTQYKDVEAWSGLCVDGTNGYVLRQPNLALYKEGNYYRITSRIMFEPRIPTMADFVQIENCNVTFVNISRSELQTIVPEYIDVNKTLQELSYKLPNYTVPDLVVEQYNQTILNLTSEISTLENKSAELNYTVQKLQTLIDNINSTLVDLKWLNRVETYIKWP

NL63 Spike protein = molecular target: T4, NL63 Spike protein (HCoV-NL63, UniProt Q6Q1S2 19-1296); experiment: as above
T4 sequence: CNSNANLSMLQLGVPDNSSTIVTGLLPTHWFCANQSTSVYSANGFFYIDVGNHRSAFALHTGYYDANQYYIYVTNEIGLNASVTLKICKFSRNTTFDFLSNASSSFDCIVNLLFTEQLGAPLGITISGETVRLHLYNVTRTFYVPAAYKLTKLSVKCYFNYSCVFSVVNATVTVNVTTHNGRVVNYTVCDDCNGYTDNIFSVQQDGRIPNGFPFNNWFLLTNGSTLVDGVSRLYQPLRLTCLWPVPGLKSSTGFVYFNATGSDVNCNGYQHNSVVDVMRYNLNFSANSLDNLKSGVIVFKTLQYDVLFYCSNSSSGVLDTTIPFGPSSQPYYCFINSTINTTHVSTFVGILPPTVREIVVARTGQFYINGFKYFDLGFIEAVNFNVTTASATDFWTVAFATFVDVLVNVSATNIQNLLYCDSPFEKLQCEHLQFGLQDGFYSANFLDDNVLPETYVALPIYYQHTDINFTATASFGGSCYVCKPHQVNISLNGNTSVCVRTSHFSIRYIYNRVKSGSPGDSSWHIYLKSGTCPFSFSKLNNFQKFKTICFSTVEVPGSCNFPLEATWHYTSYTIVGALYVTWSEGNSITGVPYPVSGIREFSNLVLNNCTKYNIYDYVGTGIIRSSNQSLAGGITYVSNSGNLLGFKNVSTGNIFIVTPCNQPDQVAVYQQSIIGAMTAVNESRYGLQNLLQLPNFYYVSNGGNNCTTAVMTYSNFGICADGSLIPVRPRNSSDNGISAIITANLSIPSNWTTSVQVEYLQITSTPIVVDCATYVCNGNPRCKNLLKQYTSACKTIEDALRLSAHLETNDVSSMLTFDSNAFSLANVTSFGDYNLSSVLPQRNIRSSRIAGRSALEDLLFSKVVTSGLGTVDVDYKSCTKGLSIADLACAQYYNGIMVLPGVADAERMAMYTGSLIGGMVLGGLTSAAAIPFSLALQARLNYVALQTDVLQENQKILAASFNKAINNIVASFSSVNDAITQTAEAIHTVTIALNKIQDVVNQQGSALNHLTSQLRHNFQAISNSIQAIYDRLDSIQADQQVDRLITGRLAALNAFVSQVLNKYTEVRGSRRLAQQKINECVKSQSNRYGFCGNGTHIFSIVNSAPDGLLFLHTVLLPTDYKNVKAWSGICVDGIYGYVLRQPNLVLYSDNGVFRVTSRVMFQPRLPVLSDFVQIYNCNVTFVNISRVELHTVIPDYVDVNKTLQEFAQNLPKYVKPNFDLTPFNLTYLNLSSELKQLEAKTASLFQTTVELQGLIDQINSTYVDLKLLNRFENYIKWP

B1: S2P6 (antibody, V domains shown)
VH: EVQLVQSGAEVKKPGASVKVSCKASGYTFTSQYMHWVRQAPGQGLEWIGIINPSGVHTSYAQKFQGRVTLTRDTSTSTLYMELSSLRSEDTAVYYCARGSPKGAFDYWGQGTLVTVSS
VL: not shown
SARS-CoV-2 Spike protein [1]
  Kd: 9.7 nM

B2: CC40.8 (antibody, V domains shown)
VH: EVQLLESGGGLVQPGGSLRLSCAASGFTFSSYVMTWARQAPGKGLEWVSAISGTGYTYYADSVKGRFTVSRDNSKNTLFLQMSSLRAEDTAVYYCAITMAPVVWGQGTTVTVSS
VL: SYELTQPPSVSVSPGQTARITCSGDALPKRYAYWYQQKSGQAPILVIYEDKKRPSGIPERLSGSKSGTVATLTISGAQVEDEADYYCYSTDSSGNHAVFGGGTQLTVL
SARS-CoV-2 Spike protein [1]
  Kd: 1.6 nM

B3: CV3-25 (antibody, V domains shown)
VH: QVQLVESGAEVKKPGESLKISCKGSGYTFTRYWIGWVRQMPGKGLEWMGIIYPGDSDTRYSPSFQGHVTISADKSISTAYLQWNSLKASDTAMYYCARLPQYCSNGVCQRWFDPWGQGTLVTVSS
VL: EIVLTQSPSSVSASVGDRVTITCRASQGISSWLAWYQQKPGKAPKLLIYAASSLQSGVPSRFSGSGSGTDFTLTISSLQPEDFATYYCQQGNSFPYTFGQGTNLEIK
SARS-CoV-2 Spike protein [1]
  Kd: 2.5 nM

B4: 1249A8 (antibody, V domains shown)
VH: QVQLVQSGAEVKKPGASMKVSCKASGFTFTDYYMHWVRQAPRQGLEWMGLINPSGSGTAYAQNFQGRVTLARDTSTSTLYMEMGSLTSDDTAVYYCARMDSSGSYDHWGQGTLVTVSS
VL: ETTLTQSPGTLSLSPGDRATLSCRASQTIRISYLAWYQQKPGQAPRLLVYGPSIRATGIPDRFSARGSGTDFTLTISRLEPEDFAVYYCQHYGSSPPRYTFGQGTKLEIK
SARS-CoV-2 Spike protein [2]
  Kd: 1.22 nM
[3]
  Kd: 0.517 nM
SARS-CoV-2 Spike protein [4]
  Kd: 1.8 nM
[5]
  Kd: 0.52 nM
SARS-CoV-2 Spike protein [6]
  Kd: 2.85 nM
229E Spike protein
  binding result: no binding (tested: about 1000 ng/ml)
NL63 Spike protein
  binding result: no binding (tested: about 1000 ng/ml)
